{
  "source": "paper PMC9431562",
  "about": "“A Cytoplasmic NAD(P)H-Dependent Polysulfide Reductase with Thiosulfate Reductase Activity from the Hyperthermophilic Bacterium Thermotoga maritima” (Microbiology Spectrum, 2022)",
  "key": {"NSR": {"molecular_target": "T1, NSR (Thermotoga maritima, UniProt Q9WYL1)", "T1 construct": "gene TM_0379; full-length ORF amplified from genomic DNA, pET-24b(+) BamHI/XhoI, His-tagged, E. coli BL21; about 50 kDa by SDS-PAGE; FAD flavoprotein; purified anaerobically", "T1 sequence (Q9WYL1 1-443)": "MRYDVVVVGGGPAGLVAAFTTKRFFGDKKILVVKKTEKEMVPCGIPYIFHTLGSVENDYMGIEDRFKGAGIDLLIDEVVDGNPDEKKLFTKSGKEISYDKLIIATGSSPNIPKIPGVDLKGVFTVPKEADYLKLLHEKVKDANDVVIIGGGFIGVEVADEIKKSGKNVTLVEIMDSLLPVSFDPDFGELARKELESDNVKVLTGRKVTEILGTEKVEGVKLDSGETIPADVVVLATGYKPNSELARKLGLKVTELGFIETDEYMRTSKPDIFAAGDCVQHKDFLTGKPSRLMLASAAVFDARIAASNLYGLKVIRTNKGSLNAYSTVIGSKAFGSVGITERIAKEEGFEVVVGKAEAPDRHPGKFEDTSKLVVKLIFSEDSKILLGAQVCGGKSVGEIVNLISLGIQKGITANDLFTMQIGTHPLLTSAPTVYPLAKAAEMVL", "experiment": "thin-layer chromatography of cofactor", "format": "binding", "conditions": "as-purified recombinant enzyme"}, "purified protein [1]": {"substrate": "NC(=O)C1=CN([C@@H]2O[C@H](COP(=O)(O)OP(=O)(O)OC[C@H]3O[C@@H](n4cnc5c(N)ncnc54)[C@H](O)[C@@H]3O)[C@@H](O)[C@H]2O)C=CC1", "experiment": "purified protein", "format": "biochemical, Thermotoga maritima", "conditions": "co-substrate S^0, 50 mM phosphate pH 7.0, 45 °C, anaerobic, table cell does not tell whether CoA was present"}, "purified protein [2]": {"substrate": "NC(=O)C1=CN([C@@H]2O[C@H](COP(=O)(O)OP(=O)(O)OC[C@H]3O[C@@H](n4cnc5c(N)ncnc54)[C@H](OP(=O)(O)O)[C@@H]3O)[C@@H](O)[C@H]2O)C=CC1", "experiment": "purified protein", "format": "biochemical, Thermotoga maritima", "conditions": "co-substrate S^0, 50 mM phosphate pH 7.0, 45 °C, anaerobic, table cell does not tell whether CoA was present"}, "purified protein [3]": {"substrate": "O=S(O)(O)=S", "experiment": "purified protein", "format": "biochemical, Thermotoga maritima", "conditions": "co-substrate NADH, 50 mM phosphate pH 7.0, 45 °C, anaerobic, table cell does not tell whether CoA was present"}},
  "data": [
    {"molecule": "Cc1cc2nc3c(=O)[nH]c(=O)nc-3n(C[C@H](O)[C@H](O)[C@H](O)COP(=O)(O)OP(=O)(O)OC[C@H]3O[C@@H](n4cnc5c(N)ncnc54)[C@H](O)[C@@H]3O)c2cc1C", "note": "[FAD]", "values": [
      {"measurement": "thin-layer chromatography of cofactor", "setting": "NSR", "result": "Thin-layer chromatography analysis showed that it binds FAD as its cofactor"}
    ]},
    {"molecule": "NSR (Thermotoga maritima MSB8) (protein, full-length ORF amplified from genomic DNA, pET-24b(+) BamHI/XhoI, His-tagged, E. coli BL21; about 50 kDa by SDS-PAGE; FAD flavoprotein; purified anaerobically) MRYDVVVVGGGPAGLVAAFTTKRFFGDKKILVVKKTEKEMVPCGIPYIFHTLGSVENDYMGIEDRFKGAGIDLLIDEVVDGNPDEKKLFTKSGKEISYDKLIIATGSSPNIPKIPGVDLKGVFTVPKEADYLKLLHEKVKDANDVVIIGGGFIGVEVADEIKKSGKNVTLVEIMDSLLPVSFDPDFGELARKELESDNVKVLTGRKVTEILGTEKVEGVKLDSGETIPADVVVLATGYKPNSELARKLGLKVTELGFIETDEYMRTSKPDIFAAGDCVQHKDFLTGKPSRLMLASAAVFDARIAASNLYGLKVIRTNKGSLNAYSTVIGSKAFGSVGITERIAKEEGFEVVVGKAEAPDRHPGKFEDTSKLVVKLIFSEDSKILLGAQVCGGKSVGEIVNLISLGIQKGITANDLFTMQIGTHPLLTSAPTVYPLAKAAEMVL", "values": [
      {"measurement": "Km", "setting": "purified protein [1]", "result": "50 ± 6.3", "unit": "µM"},
      {"measurement": "Km", "setting": "purified protein [2]", "result": "80 ± 21.2", "unit": "µM"},
      {"measurement": "Km", "setting": "purified protein [3]", "result": "10 ± 1.2", "unit": "µM"}
    ]}
  ]
}
